Laboratory results from article PMC11430254, “Insights into Transient Dimerisation of Carnitine/Acylcarnitine Carrier (SLC25A20) from Sarkosyl/PAGE, Cross-Linking Reagents, and Comparative Modelling Analysis” (Biomolecules, 2024).

B1: native carnitine/acylcarnitine carrier purified from isolated rat liver mitochondria (natural protein, UniProt P97521 1-301, looked up)
chain: MAEEPKPISPLKNLLAGGFGGVCLVFVGHPLDTVKVRLQTQPPSLPGQPPMYSGTIDCFRKTLFREGITGLYRGMAAPIIGVTPMFAVCFFGFGLGKRLQQKSPEDELTYPQLFTAGMLSGVFTTGIMTPGERIKCLLQIQASSGKNKYSGTLDCAKKLYQEFGIRGFYKGTALTLMRDVPASGMYFMTYEWLKNLFTPQGKSVHDLSVPRVLVAGGFRGIFNWVVAIPPDVLKSRFQTAPPGKYPNGFRDVLRELIREEGVTSLYKGFNAVMIRAFPANAACFLGFEIPMKILNWIAPNL
notes: mitochondrial carnitine/acylcarnitine carrier (CAC, SLC25A20), rat, native protein from liver mitochondria; single band of apparent molecular weight 32,500 Da on SDS gel; Integral membrane protein; also called CAC; SLC25A20; source: purified from rat liver mitoplasts (3% Triton X-100 extract, hydroxyapatite, celite with cardiolipin); used in Triton X-100 or reconstituted in liposomes
B2: recombinant carnitine/acylcarnitine carrier wild type (natural protein, UniProt P97521 1-301, looked up)
chain: B1 chain
notes: also called CAC WT; WT; source: overexpressed from cDNA cloned in pMW7, purified, reconstituted in liposomes

What was measured:
[1] = molecular target: the molecule itself; assay: cross-linking; purified CAC reconstituted in liposomes (0.5 µg protein), 0.5 mM Sulfo-MBS (spacer arm 9.9 Å), 30 min at room temperature, quenched with 10 mM DTE and 20 mM Tris-HCl pH 8.0; SDS-PAGE and immunoblot
[2] = molecular target: the molecule itself; assay: native gel or EMSA; Sarkosyl/PAGE: 14% polyacrylamide, 0.05% w/v Sarkosyl in gel, samples and running buffer, 100 Volt, 4 °C; purified CAC in Triton X-100 or extracted from proteoliposomes with 0.05% Sarkosyl; silver nitrate staining; 59 kDa band excised and run on SDS-PAGE with immunoblot
[3] = molecular target: the molecule itself; assay: cross-linking; recombinant CAC WT alone (100) or mixed with C-lessV (75/25, 50/50) reconstituted in liposomes, incubated with Sulfo-SMPB; SDS-PAGE and immunoblot

Row | Protein | stoichiometry N [1] | stoichiometry N [2] | stoichiometry N [3]
1 | B1 | 2 | ~2 | 
2 | B2 |  |  | 2
